Test [1] concerns the target full-length gp120 monomer (HIV-1, isolate ; JRCSF as …, UniProt P20871). Briefly: ITC. (In general: In ITC the heat of successive injections is recorded.)
Test [2] has as its target full-length gp120 pre-complexed with CD4 (HIV-1, isolate  (JRCSF as …, UniProt P20871;P01730)). Briefly: ITC.

B1: PGT124 Fab (Fab, V domains shown)
VH: QVQLQESGPGLVRPSETLSVTCIVSGGSISNYYWTWIRQSPGKGLEWIGYISDRETTTYNPSLNSRAVISRDTSKNQLSLQLRSVTTADTAIYFCATARRGQRIYGVVSFGEFFYYYYMDVWGKGTAVTVSS
VL: SYVSPLSVALGETARISCGRQALGSRAVQWYQHKPGQAPILLIYNNQDRPSGIPERFSGTPDINFGTTATLTISGVEVGDEADYYCHMWDSRSGFSWSFGGATRLTVL
As for B1, the Kd in test [1] is 0.038 µM; in test [2], 0.034 µM.

Usually Kd stands for the constant that tells how readily two partners part at equilibrium.
